# Columns and labels:
# [1] = target: MTCL1 CC1 fragment purified from E. coli (mouse); experiment: cross-linking; purified CC1 fragment (0.52 mg/ml) in PBS, 30 min at 25°C with DST (0.1, 0.3 and 0.9 mg/ml); stopped with 50 mM Tris-HCl pH 7.5
# [2] = target: MTCL1 CC1 fragment purified from E. coli (mouse); experiment: SDS-PAGE without heat pretreatment; purified tag-free CC1 fragment in SDS sample buffer with 2% SDS, with or without heat treatment (100°C, 10 min); CBB staining
substance,measurement,setting,value
MTCL1 CC1 fragment purified from E. coli (domain or fragment),stoichiometry N,[1],2
same,stoichiometry N,[2],2
